Results published in patent US20150299276A1.

Legend:
[1] = target: rat α6/α3β2β3 nAChR (rat), P12390; experiment: cell-based or functional assay
[2] = target: rat α6/α3β4 nAChR (rat), P12392; experiment: cell-based or functional assay

Binder: GCCSDPPCRNKHPDLCG (modifications not checked) [α-conotoxin TxIB/Txd4(G)]
- IC50 (half-blocking dose) of ACh-gated current, Xenopus oocytes [1]: 247 nM
- Ratio (IC50 of TxIB(G) / IC50 of TxIB) [1]: 8.7
- IC50 (half-blocking dose) of ACh-gated current, Xenopus oocytes [2]: > 10000 nM

Binder: GCCSDPPCRNKHPDLC (modifications not checked) [α-conotoxin TxIB/Txd4]
- IC50 (half-blocking dose) of ACh-gated current, Xenopus oocytes [1]: 28.4 nM
- Ratio (IC50 of TxIB(G) / IC50 of TxIB) [1]: 1
- IC50 (half-blocking dose) of ACh-gated current, Xenopus oocytes [2]: > 10000 nM
